# Results published in doi:10.1101/2023.10.24.563787 (bioRxiv, 2023).
# Molecular target: the molecule itself
# Assay: cryo-EM structure
protein,measurement,value
"3xFLAG-Lip1, small regulatory subunit of the yeast ceramide synthase (CerS) complex (natural protein, S. cerevisiae) PKIFNLFRVCFISLLLIAAVEYFKYGTRINYEWFHCTPIKEPQSGSVIKLWARGGPSCDKRGEYKTIVKRITRDYEPNDEHLSFCIIENDNVPPVHYPIHEDKGEPGYVAYVGYDTDSELVQELCADSTIYHM",stoichiometry N,2
